Article PMC2657470 (Biochemical and biophysical research communications, 2009)
Where two headings read alike, the source gives them in different places.

What was measured:
[1] = system: N-terminal domain of hsEH; conditions: FPP as substrate of N-terminal domain of hsEH; ref [8]; cited from earlier work
Phos15739D28A = test: Enzymatic activity of variant Phos15739D28A with p-NPP and FPP; assay type: biochemical, D. melanogaster; conditions: same reaction conditions as positive control Phos15739; data not shown
Phos15739 [2] = target: T1, Phos15739 (Drosophila melanogaster, UniProt Q9VYT0); assay type: biochemical, D. melanogaster; conditions: for substrate quality for Phos15739 (in words): isoprenoid mono- and pyrophosphate substrates
Phos2680 = Phos2680 (Drosophila melanogaster, UniProt Q9W4W5); test: In vitro inhibition of Phos2680, p-NPP as substrate
[3] = target: hsEH N-terminal phosphatase; conditions: cited from earlier work
Phos15739 [4] = target: T1, Phos15739; test: In vitro inhibition of Phos15739, p-NPP as substrate; conditions: for inhibitor quality for Phos15739 (in words): p-NPP as substrate
[5] = substrate: O=[N+]([O-])c1ccc(OP(=O)(O)O)cc1; test: p-NPP phosphatase activity of Phos15739; assay type: biochemical, D. melanogaster; conditions: other: p-NPP as substrate of Phos15739, pH 6.0, 2 mM Mg2+
[6] = substrate: C=C(C)CCOP(=O)(O)O; test: purified protein, by the assay type
[7] = substrate: CC(C)=CCC/C(C)=C/CC/C(C)=C/CO[P@@](=O)(O)OP(=O)(O)O; test: purified protein, by the assay type; conditions: other: substrate of Phos15739; IPP, GPP, FPP values are apparent kinetics
[8] = substrate: CC(C)=CCC/C(C)=C/CC/C(C)=C/COP(=O)(O)O; test: purified protein, by the assay type; assay type: biochemical, D. melanogaster; conditions: other: substrate of Phos15739; IPP, GPP, FPP values are apparent kinetics
[9] = substrate: CC(C)=CCC/C(C)=C/COP(=O)(O)O; test: purified protein, by the assay type; assay type: biochemical, D. melanogaster; conditions: other: substrate of Phos15739; IPP, GPP, FPP values are apparent kinetics
[10] = substrate: C=C(C)CCO[P@@](=O)(O)OP(=O)(O)O; test: purified protein, by the assay type; assay type: biochemical, D. melanogaster; conditions: other: substrate of Phos15739; IPP, GPP, FPP values are apparent kinetics
[11] = substrate: O=[N+]([O-])c1ccc(OP(=O)(O)O)cc1; test: p-NPP phosphatase activity of Phos2680; assay type: biochemical, D. melanogaster; conditions: other: p-NPP as substrate of Phos2680, pH 6.0, 2 mM Mg2+
[12] = substrate of Phos15739, IPP, GPP, FPP values are apparent kinetics
[13] = other: substrate of Phos15739, IPP, GPP, FPP values are apparent kinetics

CC(C)=CCC/C(C)=C/CC/C(C)=C/COP(=O)(O)OP(=O)(O)O [FPP, farnesyl pyrophosphate]
turnover number [1]: 0.25 ± 0.07 s⁻¹ | enzymatic activity of Phos15739D28A with substrate (Phos15739D28A): No activity was detected

CC(C)=CCC/C(C)=C/CC/C(C)=C/CC/C(C)=C/COP(=O)(O)OP(=O)(O)O [GGPP, Geranylgeranyl pyrophosphate]
substrate quality for Phos15739 (in words) (Phos15739 [2]): not good substrates

C[C@H](CCC(=O)NCCS(=O)(=O)O)[C@H]1CC[C@H]2[C@@H]3CC[C@@H]4C[C@H](OS(=O)(=O)O)CC[C@]4(C)[C@H]3CC[C@]12C [Taurolithocholic acid 3-sulfate, taurolithocholic acid 3-sulfate]
IC50 (Phos2680): > 100 µM | IC50 ([3]; ref [12]): 5 µM | IC50 (Phos15739 [4]): > 100 µM | inhibitor quality for Phos15739 (in words) (Phos15739 [4]): poor inhibitors

CC(=O)N[C@@H](CSC/C=C(\C)CC/C=C(\C)CCC=C(C)C)C(=O)O [N-acetyl-S-farnesyl-L-cysteine]
IC50 (Phos2680): > 100 µM | IC50 ([3]; ref [8]): 0.84 µM | IC50 (Phos15739 [4]): 28 ± 6.8 µM

CC(C)=CCC/C(C)=C/CC/C(C)=C/CSCC(=O)O [S-Farnesyl-thioacetic acid]
IC50 (Phos2680): 5.1 ± 1.4 µM | IC50 (Phos15739 [4]): > 100 µM | inhibitor quality for Phos15739 (in words) (Phos15739 [4]): poor inhibitors

C=C(C)CCOP(=O)(O)OP(=O)(O)O [IPP]
substrate quality for Phos15739 (in words) (Phos15739 [2]): weak substrates

CC(=O)N[C@@H](CSC/C=C(\C)CCC=C(C)C)C(=O)O [N-acetyl-S-geranyl-L-cysteine]
IC50 (Phos2680): > 100 µM | IC50 (Phos15739 [4]): 6.3 ± 1.7 µM

CC(C)=CCC/C(C)=C/CC/C(C)=C/CC/C(C)=C/COP(=O)(O)O [GGMP]
substrate quality for Phos15739 (in words) (Phos15739 [2]): not good substrates

O=[N+]([O-])c1ccc(OP(=O)(O)O)cc1 [p-NPP, para-nitrophenyl phosphate]
enzymatic activity of Phos15739D28A with substrate (Phos15739D28A): No activity was detected

CC(C)=CCC/C(C)=C/COP(=O)(O)OP(=O)(O)O [GPP]
substrate quality for Phos15739 (in words) (Phos15739 [2]): weak substrates | Kcat (s^−1±S.E.) (Phos15739 [2]; [12]): 0.78 ± 0.09 s⁻¹ | Vmax (μmol.min^−1mg^−1±S.E.) (Phos15739 [2]; [12]): 1.4 ± 1.5 µmol/min/mg

CC(=O)N[C@@H](CSC/C=C(\C)CC/C=C(\C)CC/C=C(\C)CCC=C(C)C)C(=O)O [N-acetyl-S-geranylgeranyl-L-cysteine]
IC50 (Phos2680): 14 ± 1.9 µM | IC50 (Phos15739 [4]): 4.4 ± 2 µM

B1: Phos15739 (Drosophila melanogaster) (protein)
chain: MAKPQHILQLSQEQRSSVVDSFDRVVSDIDGVLWTFEQSIPRAADGYAALEQMGKHLTFLTNNSVRTSEQCVKLFAKIGMQVHPEQIWHPAKSIVSYLQSIKFEGLIYIIASQSFKTVLREAGFQLLDGPNEFIEESYASLAEHIFGKEPVRAVIIDVDFNLTSPKILRAHLYLRHPECMLIEGATDRLLPVAKEVNIVGPGAFASILVEASGKQPITLGKPGRELGDLLVEHYQIVQPSRVLMIGDMLAQDVSFGRQCGFQTLLVLSGGCSKEELLAETDPQRIPDYYADSVADVAQMLGEAPKSRV
Km [5]: 240 µM | Vmax [5]: 6.1 µmol/min/mg | Km [6, 13]: 84 ± 27 µM | Vmax [6, 13]: 18 ± 2.7 µmol/min/mg | kcat [6, 13]: 10 ± 1.5 s⁻¹ | kcat/Km [6, 13]: 120000 M⁻¹ s⁻¹ | Km [7]: 48 ± 13 µM | Vmax [7]: 18 ± 1.8 µmol/min/mg | kcat [7]: 10 ± 1.04 s⁻¹ | kcat/Km [7]: 2.1 X 10^5 M^−1 s^−1 | Km [8]: 160 ± 20 µM | Vmax [8]: 85 ± 4.2 µmol/min/mg | kcat [8]: 49 ± 2.4 s⁻¹ | kcat/Km [8]: 310000 M⁻¹ s⁻¹ | Km [9]: 81 ± 6.7 µM | Vmax [9]: 250 ± 9.3 µmol/min/mg | kcat [9]: 140 ± 5.3 s⁻¹ | kcat/Km [9]: 1.8e+06 M⁻¹ s⁻¹ | Km [10]: 430 ± 150 µM | Vmax [10]: 2.1 ± 0.39 µmol/min/mg | kcat [10]: 1.2 ± 0.22 s⁻¹ | kcat/Km [10]: 2700 M⁻¹ s⁻¹

B2: Phos2680 (Drosophila melanogaster) (protein)
chain: MSPPRHILKLSLEEQRQFIDSFDLVISDCDGVVWLLVGWIPNTGAAVNALKAAGKQIKFVSNNSFRSEEDYMEKFRHIGAKNVQEDDIVHPVKTIVRYLKKHKPGERVYSLMSLEANETLRKHNIEFESLQVKEHLTAASLVDHLAIEKPVGAVLFDIHLDLSYVELAKAIRHLQENDDCQLIAGGSDVIMPLAENLNVAGFFDFLEHVKRYTQREATFLGKPSPILGEMFGEMFEIRDCKRCIFIGDTLVQDVQFGKACGFQSLLVLSGCLTKEDMLNAPVEAQPDYYADSLADFTQLLENIQK
Km [11]: 640 µM | Vmax [11]: 36 µmol/min/mg | Km ([6]; other: substrate of Phos2680): 35 µM | Vmax ([6]; other: substrate of Phos2680): 59 µmol/min/mg
